Test results taken from PMC6294630.

Biological target: Wild-type placental protein 13/galectin-13 (Gal-13) (human) (UniProt Q9UHV8)

- hemagglutination of chicken erythrocytes, minimum agglutination concentration (MAC): 25 µg/mL
B1: Wild-type placental protein 13/galectin-13 (Gal-13) (natural protein)
chain: MSSLPVPYKLPVSLSVGSCVIIKGTPIHSFINDPQLQVDFYTDMDEDSDIAFRFRVHFGNHVVMNRREFGIWMLEETTDYVPFEDGKQFELCIYVHYNEYEIKVNGIRIYGFVHRIPPSFVKMVQVSRDISLTSVCVCN
